In patent US20220220158A1:

How the values were obtained:
[1] = molecular target: antibodies of human serum sample 16CDV61197; test: DAGS blocking; signal antigen m1 SS-ZIKA-NS1-wing
[2] = molecular target: antibodies of human serum sample 16CDV61275; test: DAGS blocking; signal antigen m1 SS-ZIKA-NS1-wing
[3] = molecular target: antibodies of human serum sample 16CDV61278; test: DAGS blocking; signal antigen m1 SS-ZIKA-NS1-wing
[4] = molecular target: antibodies of human serum sample 16CDV61197; test: DAGS blocking; signal antigen m3 S-ZIKA-NS1-ß-ladder
[5] = molecular target: antibodies of human serum sample 16CDV61275; test: as above
[6] = molecular target: antibodies of human serum sample 16CDV61278; test: as above

B1: Dengue virus type 4 NS1 full length aa 1-352 (protein)
chain: DTGCAVSWSGKELKCGSGIFVIDNVHTWTEQYKFQPESPARLASAILNAHEDGVCGIRSTTRLENIMWKQITNELNYVLWEGGHDLTVVAGDVKGVLSKGKRALAPPVNDLKYSWKTWGKAKIFTPEAKNSTFLIDGPDTSECPNERRAWNFLEVEDYGFGMFTTNIWMKFREGSSEVCDHRLMSAAIKDQKAVHADMGYWIESSKNQTWQIEKASLIEVKTCLWPKTHTLWSNGVLESQMLIPKAYAGPFSQHNYRQGYATQTVGPWHLGKLEIDFGECPGTTVTIQEDCDHRGPSLRTTTASGKLVTQWCCRSCTMPPLRFLGEDGCWYGMEIRPLSEKEENMVKSQVSA
- Blocking [%] [1]: 0.891%
- Blocking [%] normalized to Zika [1]: 1.2%
- counts [1]: 2900 counts
- Blocking [%] [2]: 2.48%
- Blocking [%] normalized to Zika [2]: 3.3%
- counts [2]: 3040 counts
- Blocking [%] [3]: 4.5%
- Blocking [%] normalized to Zika [3]: 4.9%
- counts [3]: 2880 counts
- Blocking [%] [4]: 31.6%
- Blocking [%] normalized to Zika [4]: 50.3%
- counts [4]: 2320 counts
- Blocking [%] [5]: 25.1%
- Blocking [%] normalized to Zika [5]: 27.3%
- counts [5]: 2730 counts
- Blocking [%] [6]: 2.6%
- Blocking [%] normalized to Zika [6]: 3.7%
- counts [6]: 2830 counts
